The Human Domainome abundance scans (Beltran et al. 2025)

B1: GA-binding protein alpha chain, residues 172 to 250; numbered along this chain, Q06546 (parent)
chain: GYRKEQERLGIPYDPIQWSTDQVLHWVVWVMKEFSMTDIDLTTLNISGRELCSLNQEDFFQRVPRGEILWSHLELLRKY

Variants of: B1
Experiment: abundance fitness (aPCA) (normalised: wild type 0, dead -1); higher = more abundant; growth selection in yeast, the domain comes from the species named
Settings: Homo sapiens

Abundance fitness, by site and new letter:
R49: D -0.1 | E 0.041 | N -0.257 | C -0.109 | T -0.085 | M 0.042 | G -0.125 | W -0.143 | Y -0.077 | V -0.082 | L -0.072 | P 0.001 | I -0.203 | A 0.006 | Q -0.021 | K -0.086 | F -0.113 | H -0.152 | S -0.006
E57: C -0.058 | R -0.082 | M -0.139 | D -0.063 | S -0.051 | V -0.081 | I -0.153 | Y 0.009 | H -0.023 | W -0.135 | P -0.098 | T -0.068 | A 0.011 | L -0.076 | G -0.045 | K -0.122 | N -0.192 | Q -0.046
N45: H 0.015 | I -0.251 | M -0.054 | T -0.01 | Q -0.086 | Y -0.191 | F -0.348 | R -0.038 | L -0.195 | D -0.148 | E -0.039 | W -0.276 | V -0.122 | K 0.032 | P -0.373 | A 0.003 | S -0.019 | C -0.063
Q56: P -0.178 | M -0.107 | L -0.291 | R -0.008 | T -0.132 | V -0.184 | K -0.004 | F -0.087 | N -0.455 | I -0.133 | A -0.044 | C -0.162 | H -0.049 | W -0.351 | Y 0.025 | E -0.015 | D -0.262 | G -0.245
F59: I -0.507 | G -0.888 | C -0.972 | K -0.815 | V -0.803 | W -0.263 | L -0.424 | H -0.931 | S -0.626 | E -0.954 | P -1.02 | Y -0.853 | A -0.813 | R -0.552 | N -0.74 | T -1.02
N55: R -0.014 | E -0.037 | K -0.189 | C -0.124 | M -0.291 | W -0.782 | P -0.039 | D 0.008 | V -0.148 | H -0.124 | Y -0.274 | A -0.065 | T -0.025 | I -0.244 | G -0.02 | L -0.252 | F -0.712 | S 0.012
G48: F -0.796 | M -0.99 | T -0.813 | D -0.804 | S -0.804 | L -0.982 | W -0.84 | A -0.788 | H -0.305 | K -0.951 | R -0.944 | V -0.884 | N -0.578 | Q -1.02 | C -0.919 | P -0.633
I46: G -0.796 | P -1 | N -0.644 | H -0.874 | M 0.069 | W -0.257 | S -1 | V -0.109 | T -0.654 | A -0.584 | Q -0.828 | L -0.034 | E -0.939 | F -0.237 | C -0.17 | R -0.909 | K -0.835
C52: Y -0.431 | N -0.47 | Q -0.615 | E -0.457 | P -1.03 | K -0.887 | T -0.226 | I 0.076 | F -0.333 | S -0.335 | G -0.575 | V -0.122 | L -0.077 | A -0.22
Q61: Y -0.203 | R -0.011 | D -0.155 | V -0.01 | G -0.029 | S 0.004 | W -0.298 | C -0.091 | K -0.016 | I -0.178 | L -0.009 | M -0.022 | T 0.014 | E -0.041 | A -0.014 | P -0.777
L54: E -0.484 | F -0.051 | I -0.157 | W -0.021 | D -0.842 | Q -0.446 | K -0.649 | R -0.682 | C -0.374 | Y -0.273 | G -0.791 | V -0.341 | M -0.009 | H -0.486 | S -0.693
T43: S 0.014 | Y -0.005 | P 0.013 | R -0.027 | Q -0.016 | M -0.043 | V -0.065 | N -0.037 | W -0.123 | K 0.102
R62: E -0.197 | A -0.132 | C -0.143 | W -0.314 | Y -0.133 | D -0.797 | S -0.156 | F -0.192 | V -0.039 | P -1.06 | M 0.07 | H -0.213 | Q -0.106 | K -0.014 | G -0.426 | L 0.008 | T -0.194
V63: D -0.667 | E -0.563 | G -0.218 | H -0.886 | F 0.018 | A -0.075 | C -0.012
F60: W -0.211 | H -0.118 | R 0.003 | M 0.121 | P -0.527 | V 0.049 | K -0.048 | Y -0.06 | S 0 | E -0.074 | N -0.183 | L 0.033 | C -0.088 | T -0.044 | A -0.03 | Q -0.053 | I 0.039 | G -0.101
E50: Q 0.013 | G -0.594 | M -0.24 | R -0.249 | C -0.088 | Y -0.117 | H -0.2 | S -0.291 | L -0.201 | D -0.041 | K -0.041 | N -0.252 | I -0.156 | A -0.074 | W -0.672 | P -0.94
L51: E -0.818 | G -0.92 | I -0.374 | Q -0.951 | F -0.815 | D -0.786 | P -0.746 | W -1.04 | H -0.928 | M -0.163 | V -0.652 | A -0.982 | K -1.13 | R -0.813 | T -0.825 | N -0.897
S47: G -0.14 | T 0.03 | D -0.07 | M -0.446 | C -0.039 | K -0.137 | H -0.266 | N -0.041 | R -0.277 | A -0.161 | Y -0.637 | P -0.04 | W -0.812 | F -0.866 | I -0.279 | E -0.061 | V -0.418 | Q -0.276
D58: G -0.071 | Y -0.165 | Q -0.03 | V -0.091 | N -0.188 | M -0.004 | W -0.19 | T -0.053 | A -0.041 | L -0.087 | K -0.129 | I -0.022 | S 0.003 | H -0.149 | R -0.092 | P -0.943 | E -0.095 | C -0.177
S53: L -0.108 | W -0.381 | T -0.144 | G -0.068 | F -0.269 | H -0.171 | N -0.033 | Q -0.085 | D 0.076 | R -0.057 | C -0.061 | A -0.063 | V -0.331 | M -0.121 | P -0.522
L44: H -0.825 | C -0.282 | M -0.019 | P -0.865 | K -0.862 | Q -1.09 | S -0.745 | A -0.715 | D -0.945 | R -0.989 | E -0.876 | F -0.108 | G -0.711 | V -0.193
